Consider 2 molecules from US8653039 (INDIANA UNIVERSITY RESEARCH AND TECHNOLOGY CORPORA, dated 2014).

Where no end group is shown, it is not given here.

The target in assay [1] is T1, cancer specific isoform of proliferating cell nuclear antigen (caPCNA) (human, UniProt P12004 1-261, acidic isoform; the filing says it differs from nmPCNA by post-translational modification, not by a genetic change; the residues are not stated).
T1 construct: Native protein from MCF7 cell extract, nuclear extract or synthesome fraction, or 'isolated/purified caPCNA' in the ELISAs; also called csPCNA; ca(cs)PCNA
T1 sequence (P12004 whole entry, canonical isoform): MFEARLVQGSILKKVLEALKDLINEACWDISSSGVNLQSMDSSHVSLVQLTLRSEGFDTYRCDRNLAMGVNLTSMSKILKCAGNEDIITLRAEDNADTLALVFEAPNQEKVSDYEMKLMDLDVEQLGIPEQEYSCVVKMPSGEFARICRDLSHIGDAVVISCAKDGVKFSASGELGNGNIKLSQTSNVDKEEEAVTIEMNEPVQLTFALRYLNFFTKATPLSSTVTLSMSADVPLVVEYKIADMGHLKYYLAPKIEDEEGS
The assay can be described thus: competition ELISA, caPCNAab on the plate, purified caPCNA, XPG peptide in increasing amounts. The procedure:
The wells are washed and then incubated with a goat anti-PCNA antibody (C20) that recognizes the C-terminal 20 amino acids of PCNA. Bound C20 antibody is visualized with an alkaline phosphatase conjugated anti-goat IgG antibody, and bound antibody complex is visualized with […], and quantified by spectrophotometry. The competition experiments shown in this study involve the simultaneous incubation of the ca(cs)PCNA with increasing amounts of the antigenic peptide fragment of caPCNA (referred to as B1 or the PCNA aa126-133 peptide) in this assay.
The ELISA described herein was used to monitor the ability of two peptides to disrupt caPCNA binding to the bound caPCNA antibody. One peptide (H-Gly-Arg-Lys- […] OH) (SEQ ID NO: 29) corresponding to the p21cip/waf1 proteins site of interaction with PCNA was evaluated in this assay, and is shown to have no effect on the binding of caPCNA to the bound caPCNA antibody in this ELISA assay (FIG. 7). […] Therefore, the XPG peptide interacts with its recognized PCNA binding site in order to block binding of the PCNA protein to the caPCNA antibody. This happens if the epitope recognized by the antibody was masked by specifically binding this XPG peptide.
In general terms: An ELISA detects its analyte on a solid surface through an enzyme-linked reagent.

Assay [2] has as its target cancer specific isoform of proliferating cell nuclear antigen (caPCNA) (human) (UniProt P12004). The assay is described as follows: capture ELISA, XPG-GST on the plate, cell extracts, detection with C20 anti-PCNA antibody.

cancer specific isoform of proliferating cell nuclear antigen (caPCNA) (human), sequence (P12004 whole entry, canonical isoform): as above

With H-QTQLRIDSFFR-OH [XPG peptide corresponding to the XPG-PCNA interaction site of the XPG protein], in assay [1], the binding result is reported as “binds”.
LKQLDAQQTQLRIDSFFRLAQQEKEDAKR (peptide, UniProt P28715 981-1009, looked up, not shown: a dimerising Fc or GST, also: fused to GST, order of parts and linker not given here) [XPG-GST fusion protein]: the fold colored product (absorbance at 405 nm), MCF7 extract against MCF10A extract in assay [2] amounted to 3 fold.
